Data taken from US20130040894A1, “INHIBITION OR ACTIVATION OF SERINE/THREONINE ULK3 KINASE ACTIVITY” (TALLINN UNIVERSITY OF TECHNOLOGY, priority 2009, published 2013).

Assays:
[1] = system: GLI1GFP localization in NIH3T3 cells; experiment: Immunofluorescence assay, subcellular localization of GFP-tagged GLI1; format: cell-based, mouse; settings: coexpressed with GLI1GFP in NIH3T3 cells
Procedure: NIH3T3 cells were transfected with GLI1GFP and FLAG-tagged expression constructs for ULK3 or ULK3(K139R) in ratio 1:1 on 8-chamber slides (Falcon, BD Biosciences, San Jose Calif., USA). The cells were fixed with 4% paraformaldehyde and washed three times for 5 min with Stain Wash Medium (SWM) (0.5% BSA and 0.01% NaN3 in PBS). Subsequent permeabilization of cells was performed at RT by 10-min incubation in. PBS supplemented with 0.5% Triton X-100. Afterwards, the cells were washed three times for 5 min with SWM, blocked for 30 min in PBS containing 5% bovine serum albumin (BSA), and incubated with mouse monoclonal M2-anti-FLAG antibody (diluted 1:1000 in SWM) for 1 h at RT with gentle agitation. After three washes of 10 min with SWM, the cells were incubated for 30 min with secondary antibody Alexa-Fluor 568 (Invitrogen) (diluted 1:500 in SWM) mixed with nuclear stain Hoechst 33342 (diluted 1:100). Cells were washed twice with SWM and mounted with Mowiol 4-88 (Sigma-Aldrich). GLI1GFP protein localization was assessed in at least 200 FLAG-positive cells under a fluorescent microscope Olympus BX61 with UPLan SApo 40× objective, and the experiment was repeated three times. Confocal images were obtained with a Zeiss LSM-510 META confocal laser-scanning microscope (Carl Zeiss MicroImaging GmbH, Germany) equipped with Plan-Apochromat 63×/1.4 oil immersion objective.
Next we examined if overexpression of ULK3 kinase influences the subcellular localization of GLI1 and GLI2 proteins. […] FLAG-tagged ULK3 and ULK3(K139R) (or respective empty vector) were coexpressed with GFP-tagged GLI1 and GLI2 in NIH3T3 cells. Subcellular localization of GLI1 and GLI2 was determined, and average values were calculated from three independent experiments. ULK3 and its mutant remained almost completely cytoplasmic. GFP-tagged GLI2 localized predominantly in the nucleus and its localization was not altered by ULK3 or ULK3(K139R) (data not shown). Overexpressed GLI1GFP was detected both in cytoplasm and nucleus (FIG. 3A). […] Under the influence of ULK3 localization of GLI1 was shifted.

[2] = system: ULK3; experiment: In vitro kinase assay, autophosphorylation; format: biochemical, human; settings: FLAG-tagged protein immunopurified from HEK293 cells, γ-P32-ATP
Procedure: HEK293 cells were transfected with 13.5 μg of FLAG-tagged constructs expressed GLI1, GLI2, GLI3, ULK3, ULK3(K44R), ULK3(K139R) or FLAG-CMV-4 empty vector on 10 cm plates. The cells were lysed with 0.5 ml of Lysis Buffer (50 mM Tris HCl, pH 7.4, 150 mM NaCl, 1 mM EDTA, 1% Triton X-100) containing protease inhibitor cocktail (PIC) (Roche Applied Science). The lysates were centrifuged for 15 min at 4° C. and 15000 g, and the supernatants were used for immunoprecipitation (IP). IP was performed using anti-FLAG-M2 affinity gel (Sigma-Aldrich) in batch format according to the manufacture's instructions. Immune complexes were washed three times with 500 μl of Kinase Buffer (KB) (50 mM HEPES, pH 7.4, 20 mM MgCl2, 25 μM ATP) and resuspended in 12.5 μl of KB. One fifth of the immuno-complexes was subjected to WB and the rest was used for the kinase assay.
Kinase reactions were carried out in KB in a total volume of 20 μl of in the presence of 1 μCi of [γ-^32P]ATP per reaction. We used 1 μl of the immunoprecipitated ULK3, ULK3(K44R) or ULK3(K139R) mixed with 5 μl of the GLI-M2 immunocomplexes or 5 μl of bacterially expressed and purified His-GLI1 fragments. Kinase reactions were held at 30° C. for 30 min and terminated by adding of 5 μl of 4× Laemmli Sample Buffer. Proteins were resolved by SDS-PAGE. The gel was dried at 80° C. for 2 h, and autoradiography was performed using Bio-Rad Personal Molecular Imager FX.
To test if ULK3 has an autophosphorylation activity, we expressed FLAG-tagged wild-type ULK3 and mutants ULK3(K44R) and ULK3(K139R) in HEK293 cells, immunopurified and subjected to in vitro kinase assay in the presence of γ-P^32-ATP.

[3] = system: GLI-dependent firefly luciferase activity in Shh-LIGHT2 cells; experiment: GLI-dependent luciferase assay in Shh-L2 cells; format: cell-based, mouse; settings: for enhancement of transcriptional activity of overexpressed GLI1: cotransfected with GLI1, Shh-L2 cells; for enhancement of transcriptional activity of overexpressed GLI2: cotransfected with GLI2, Shh-L2 cells
Procedure: Cells were transfected by the expression constructs or respective empty vectors using Polyethylenimine transfection agent (PEI) (Inbio) and as described in [28]. We used 0.25 μg of cDNA per 1 cm^2 of plate surface area for transfections. After 3 h of transfection HEK293, NIH3T3 and Cos1 cells were propagated in the normal growth medium for 48 h. Prior the further analysis the cells were washed twice with PBS. Post-transfectional Shh-L2 cells were grown in the normal growth medium for 24 h and for additional 24 h in the Light medium containing 0.25% FBS, washed once with PBS, lysed in Passive Lysis Buffer (Promega, Madison Wis., USA) (70 ul per well of 24-well plate format) and subjected to luciferase assay.
Luciferase assay was performed as previously described. Briefly, firefly luciferase activity of 12 μl of the Shh-L2 cells lysate was measured using Luciferase Assay Kit (Promega) and galactosidase activity was quantified using Galacto-LightPlus kit (Tropix, Bedford Mass., USA) according to the manufacturer's instructions. Chemiluminicence was measured using Ascent FL Fluoroscan (Thermo Electron Corporation, Waltham Mass., USA) according to the manufacturer's instructions.
We cotransfected the constructs together with GLI-expressing plasmids (or respective empty vector) into Shh-L2 cells and assessed their effect on GLI-dependent firefly luciferase activity. The obtained data was normalized with β-galactosidase values. […] It was able to stimulate the luciferase activity 3.8 times and enhanced the transcriptional activity of over expressed GLI1 and GLI2 approximately 2 and 3.2 times, respectively. The potency of STK36 in the assay was much lower.
In order to examine if the kinase activity of ULK3 is required for the luciferase reporter activation we tested the supposed kinase-deficient variants of ULK3, ULK3(K44R) and ULK3(K139R) in the same assay. […] We also tested the effect of ULK3 and the mutants on the luciferase reporter when the SHH pathway was activated by cotransfection with pShhN (plasmid expressing biologically active part of SHH).

Row | autophosphorylation activity [2] | Molecule | cells that retained GLI1 in the cytoplasm ([1]; average of three experiments) [%] | cells with GLI1 mostly in the nucleus ([1]; average of three experiments) [%] | cells with uniform distribution of GLI1 ([1]; average of three experiments) [%] | enhancement of transcriptional activity of overexpressed GLI1 [3] | enhancement of transcriptional activity of overexpressed GLI2 [3] | induction of luciferase activity with activated SHH pathway ([3]; cotransfection with pShhN, Shh-L2 cells) | stimulation of GLI-dependent luciferase activity ([3]; kinase construct alone, Shh-L2 cells, normalized with β-galactosidase) [times] | influence on GLI1 subcellular localization [1]
1 | strong autophosphorylation activity | ULK3: human serine/threonine kinase, 472 amino acids (SEQ ID NO: 1), overexpressed from cloned cDNA or immunopurified FLAG-tagged (protein, listed as Homo sapiens, PEPTIDE (1)..(472) ULK3) MAGPGWGPPRLDGFILTERLGSGTYATVYKAYAKKDTREVVAIKCVAKKSLNKASVENLLTEIEILKGIRHPHIVQLKDFQWDSDNIYLIMEFCAGGDLSRFIHTRRILPEKVARVFMQQLASALQFLHERNISHLDLKPQNILLSSLEKPHLKLADFGFAQHMSPWDEKHVLRGSPLYMAPEMVCQRQYDARVDLWSMGVILYEALFGQPPFASRSFSELEEKIRSNRVIELPLRPLLSRDCRDLLQRLLERDPSRRISFQDFFAHPWVDLEHMPSGESLGRATALVVQAVKKDQEGDSAAALSLYCKALDFFVPALHYEVDAQRKEAIKAKVGQYVSRAEELKAIVSSSNQALLRQGTSARDLLREMARDKPRLLAALEVASAAMAKEEAAGGEQDALDLYQHSLGELLLLLAAEPPGRRRELLHTEVQNLMARAEYLKEQVKMRESRWEADTLDKEGLSESVRSSCTLQ | 2 | 70 | 25 | approximately 2 times | ~3.2 times | approximately 4.1 times | 3.8 | –
2 | almost completely absent | ULK3(K139R): kinase-deficient ULK3 mutant with Lysine at position 139 mutated to Arginine (SEQ ID NO:7) (protein, MUTAGEN (1)..(472) mutated ULK3 protein ULK3 (K139R)) MAGPGWGPPRLDGFILTERLGSGTYATVYKAYAKKDTREVVAIKCVAKKSLNKASVENLLTEIEILKGIRHPHIVQLKDFQWDSDNIYLIMEFCAGGDLSRFIHTRRILPEKVARVFMQQLASALQFLHERNISHLDLRPQNILLSSLEKPHLKLADFGFAQHMSPWDEKHVLRGSPLYMAPEMVCQRQYDARVDLWSMGVILYEALFGQPPFASRSFSELEEKIRSNRVIELPLRPLLSRDCRDLLQRLLERDPSRRISFQDFFAHPWVDLEHMPSGESLGRATALVVQAVKKDQEGDSAAALSLYCKALDFFVPALHYEVDAQRKEAIKAKVGQYVSRAEELKAIVSSSNQALLRQGTSARDLLREMARDKPRLLAALEVASAAMAKEEAAGGEQDALDLYQHSLGELLLLLAAEPPGRRRELLHTEVQNLMARAEYLKEQVKMRESRWEADTLDKEGLSESVRSSCTLQ | – | – | – | neither of the mutants had an effect | completely inactive | – | – | did not influence
